From the supplement of paper PMC10567573

B1: ETS2 (parent)
chain: TSGKRYVYRFVCDLQNLLGFTPEE
B2: TRIM14 (parent)
chain: YARTPTLDPDTMHARLRLSADRLT

Variants of: B1
Experiment: protein stability index of a GFP-peptide fusion (GPS, HEK-293T) (PSI 1-6); higher = more stable
Conditions: c terminus: a fixed tail appended
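Further: lentivirally expressed fusions sorted by FACS into six bins by GFP to DsRed ratio, PSI derived from sequencing read proportions per bin multiplied by bin number.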

Protein stability index: each site, then its substitutions
E23: R 3.3; G 2.15; W 2.88; L 2.42; N 2.43; P 3.46; Y 2.29; A 2.68; C 2.97; I 2.43; F 2.66; S 2.38; H 3.12; D 2.04; V 2.1; M 2.35; T 2.17; Q 2.63
G19: Y 2.52; Q 2.65; D 1.98; V 2.01; E 1.31; I 2.39; W 2.65; H 1.34; F 1.82; A 3.01; L 1.96; S 2.13; P 2.07; M 1.82; C 1.32; K 1.36; T 1.79
N16: G 2.38; Y 1.75; Q 2.04; W 2.05; T 1.97; F 2.16; P 2.56; S 2.46; L 1.52; A 2.13; V 3.2; K 2.02; E 1.74; D 2.17; M 1.53; C 1.7; H 2.49; I 2.03
F20: I 1.61; L 2.17; A 2.59; C 1.93; D 1.48; Y 2.77; K 1.77; T 1.88; N 3.28; W 3.05; R 1.87; H 1.97; Q 2.35; V 1.93; P 3.26; M 1.62; E 2
D13: C 2.22; W 2.98; S 1.57; V 2.33; Y 2.37; H 1.79; R 2.11; T 2.99; I 2.81; N 1.77; F 2.96; A 2.67; Q 2.46; L 2.22; E 2.11; G 2.41; K 2.48; P 3.25
L18: E 2.04; Y 1.74; C 1.39; N 2.29; A 1.99; F 1.84; R 2.09; T 1.91; V 2.91; W 2.1; P 1.68; K 1.95; G 1.92; I 1.2; Q 2.88; S 1.87; H 1.32; M 2.07
E24: H 2.03; A 2.69; P 2.52; L 1.96; W 2.5; Y 2.38; I 1.75; R 1.96; S 2.21; G 2.14; N 2.33; F 2.96; M 1.6; C 2.32; T 2.71; K 1.81; Q 1.89; V 2.51
L14: V 2.39; I 2.41; Y 2.56; K 3.2; M 2.14; C 2.07; D 3.01; S 2.77; R 2.35; G 2.34; P 3.53; Q 2.81; F 2.08; T 2.69; W 2.53; E 3.19; H 2.34; N 2.23; A 3.91
F10: N 3.32; K 3.16; D 3.9; S 3.37; T 2.26; P 2.59; I 2.02; C 2.06; L 1.8; G 2.57; Y 3.17; H 2.04; M 2.06; A 2.02; Q 2.7; E 2.75; W 2.42; R 3.5
R9: W 1.96; K 1.85; T 2.15; M 3; F 1.06; H 1.65; N 1.77; I 1.68; G 1.58; E 1.78; A 1.45; P 2.48; L 1.48; S 1.92; D 1.66; Y 1.79; V 2.4; C 1.53; Q 1.72
P22: E 1.46; M 2.35; F 1.89; W 1.89; C 1.4; Q 2.16; L 2.85; S 1.8; N 1.39; G 1.63; A 1.65; Y 3.16; I 2.24; V 1.05; R 3.16; T 2.16; H 2.07; K 1.83
L17: M 1.47; H 2.61; N 2.27; Q 1.71; S 2.12; K 2.43; T 2.98; G 2.31; Y 2.37; P 3.57; D 1.92; C 2.57; W 2.21; V 1.91; A 2.08; E 3.13; I 2.31; F 2.73; R 2.79
Q15: T 1.91; L 2.44; N 2.13; S 2.07; E 1.85; R 3; D 1.61; C 2.23; I 2.43; P 2.7; F 2.09; V 2.47; K 2.03; G 3.45; Y 2.23; A 2.23; H 1.96; W 1.88
V11: R 1.57; L 2.82; Y 2.14; P 2.85; Q 1.94; I 2.64; E 2.61; M 2.85; S 2.02; K 2.15; T 2.36; H 2.07; D 2.59; N 2.67; A 3.07; F 2.56; W 2.14; C 3.14
Y8: W 2.01; M 2.93; G 2.15; L 1.75; I 2.56; T 2.29; C 1.35; E 2.67; N 3.26; S 2.23; R 2.23; D 2.78; P 2.28; K 2.11; V 2.5; Q 2.02; H 2.15; F 1.55
C12: N 3.4; F 1.68; D 1.72; I 1.96; S 2.9; M 1.25; Q 2.57; Y 1.77; W 2.21; E 1.76; L 2.03; R 2.58; P 2.05; H 2.31; V 2.39; K 2.98; A 1.92; G 2.04; T 2.17
T21: I 1.76; N 2.38; K 2.25; C 1.32; G 1.95; D 1.6; F 2.02; R 1.67; W 2.15; S 2.13; L 2.1; Q 1.7; E 2.32; V 1.62; P 2.44; Y 1.77; H 2.75; A 2.11; M 2.05

Variants of: B2
Experiment: as above
Conditions: c terminus: a fixed tail appended

Protein stability index, by site and new letter:
Y1: E 4.17; F 2.21; Q 4.33; V 3.68; W 2.91; A 3.59; N 3.52; K 3.71; C 3.2; G 4; I 2.71; P 3.77; T 3.69; H 4.06; M 3.71; R 3.64; D 3.61; L 3.62
A2: D 3.32; G 3.06; E 3.71; I 1.73; C 2.53; H 2.46; F 2.74
